Measured values: patent publication US20090074766A1, “Methods of inhibiting HIV-2 infection” (priority 2007, published 2009)
“And” between values parts separate entries of the source, which are not always exact repeats. Equal entries are not always repeated.

Test system: R5 HIV-2 SLRHC
Experiment: Inhibition of replication in PBMC cultures, RT activity readout: HIV-2 SLRHC
Type: cell-based
Procedure: Viruses: All virus isolates were grown and titered exclusively in stimulated PBMC as described previously. […] The HIV-2 isolates used in this study have been previously described (Owen, S. M., Ellenberger, D., Rayfield, M., Wiktor, S., Michel, P., Grieco, M. H., Gao, F., Hahn, B. H., and Lai, R. B. 1998. Genetically Divergent Strains of Human Immunodeficiency Virus Type 2 Use Multiple Coreceptors for Entry. J Virol 72:5425-5432) and were obtained from the NIH AIDS Research and Reference Reagent Program.
PA14 (Lot # DF-021204) was produced for reagent use in the Research & Development laboratories of Progenics Pharmaceuticals Inc.
Inhibition of HIV-1 and HIV-2 replication in PBMC cultures: PBMC were isolated from 34 healthy blood donors with Ficoll-Hypaque (all media from Cellgro, Herndon, Va.) and depleted of CD8+ cells using RosetteSep CD8 depletion cocktail (StemCell Technologies) according to the manufacturer's instructions. Equal numbers of cells from each donor were then separately stimulated with 5 ug phytohemagglutinin/ml (Sigma, St. Louis, Mo.) or with surface-immobilized anti-CD3 antibody OKT3 in RPMI 1640 medium containing 10% fetal calf serum, 100 Units of interleukin-2/ml (NIH AIDS Research and Reference Reagent Program), glutamine, and antibiotics (PBMC culture medium) as previously described. After 72 hours, equal numbers of PBMC stimulated by one of these two methods from each donor were combined for use in infection assays as follows. […] The virus inoculum was adjusted to 400 to 2,000 times the TCID50 per ml in PBMC culture medium, and a 50-ul aliquot was added to each culture. The inhibitory doses refer to the concentrations of the agents present at this point in the culture, when virus, cells, and inhibitors were all present at their final concentrations. Reverse Transcriptase (RT) activity was measured on Day 7 post infection (pi) for HIV-1 and Day 10 pi for HIV-2 by the Reverse Transcriptase Assay, Colorimetric kit, #11 468 120 910, Roche (Switzerland) according to the manufacturer's instructions with the following exception: neither ultracentrifugation nor PEG precipitation of the culture supernatants was performed before viral lysis.
The inhibition data were analyzed using GraphPad Prism software (GraphPad Software, San Diego, Calif.). A 4-parameter logistic fit was used calculate the concentration of inhibitor that afforded a 50% and a 90% reduction in RT activity. […] The % inhibitions where best-fit curve reached a top plateau, also as calculated by GraphPad Prism software, are reported as well as maximum percent inhibition (MPI). […] Inhibition curves with a poor sigmoid fit (R^2<0.7) were excluded from data analysis.

B1: PRO 140: humanized IgG4,κ anti-CCR5 monoclonal antibody, humanized version of murine mAb PA14 (antibody, chains of the INN, looked up, V domains shown)
VH: EVQLVESGGGLVKPGGSLRLSCAASGYTFSNYWIGWVRQAPGKGLEWIGDIYPGGNYIRNNEKFKDKTTLSADTSKNTAYLQMNSLKTEDTAVYYCGSSFGSNYVFAWFTYWGQGTLVTVSS
VL: DIVMTQSPLSLPVTPGEPASISCRSSQRLLSSYGHTYLHWYLQKPGQSPQLLIYEVSNRFSGVPDRFSGSGSGTDFTLKISRVEAEDVGVYYCSQSTHVPLTFGQGTKVEIK
Q: What does the source list for B1?
A: EC50 (median) (HIV-2 SLRHC, R5): 0.57 µg/mL; EC90 (median) (HIV-2 SLRHC, R5): 21 µg/mL; MPI (maximum percent inhibition) (R5 HIV-2 SLRHC, individual assays (Source)): 104% and 135% and 127% and 150%; MPI, Median (R5 HIV-2 SLRHC, median of assays): 135%
